From US20030181404

B1: Csk (murine) immunoprecipitated from mouse brain (protein)
chain: SAIQAAWPSGTECIAKYNFHGTAEQDLPFCKGDVLTIVAVTKDPNWYKAKNKVGREGIIPANYVQKREGVKAGTKLSLMPWFHGKITREQAERLLYPPETGLFLVRESTNYPGDYTLCVSCEGKVEHYRIMYHASKLSIDEEVYFENLMQLVEHYTTDADGLCTRLIKPKVMEGTVAAQDEFYRSGWALNMKELKLLQTIGKGEFGDVMLGDYRGNKVAVKCIKNDATAQAFLAEASVMTQLRHSNLVQLLGVIVEEKGGLYIVTEYMAKGSLVDYLRSRGRSVLGGDCLLKFSLDVCEAMEYLEGNNFVHRDLAARNVLVSEDNVAKVSDFGLTKEASSTQDTGKLPVKWTAPEALREKKFSTKSDVWSFGILLWEIYSFGRVPYPRIPLKDVVPRVEKGYKMDAPDGCPPAVYEVMKNCWHLDAATRPTFLQLREQLEHIKTHELHL
B2: CHK (murine Ctk) immunoprecipitated from mouse brain (protein)
chain: MARRSSRVSWLAFEGWESRDLPRVSPRLFGAWHPAPAAARMPTRWAPGTQCMTKCENSRPKPGELAFRKGDMVTILEACEDKSWYRAKHHGSGQEGLLAAAALRHGEALSTDPKLSLMPWFHGKISGQEAIQQLQPPEDGLFLVRESARHPGDYVLCVSFGRDVIHYRVLHRDGHLTIDEAVCFCNLMDMVEHYTKDKGAICTKLVKPRRKQGAKSAEEELAKAGWLLDLQHLTLGAQIGEGEFGAVLQGEYLGQKVAVKNIKCDVTAQAFLDETAVMTKLQHRNLVRLLGVILHHGLYIVMEHVSKGNLVNFLRTRGRALVSTSQLLQFALHVAEGMEYLESKKLVHRDLAARNILVSEDLVAKVSDFGLAKAERKGLDSSRLPVKWTAPEALKNGRFSSKSDVWSFGVLLWEVFSYGRAPYPKMSLKEVSEAVEKGYRMEPPDGCPGSVHTLMGSCWEAEPARRPPFRKIVEKLGRELRSVGVSAPAGGQEAEGSAPTRSQDP

Protein	in vitro kinase assay of immunoprecipitates (32P incorporation into substrate) (C-terminal src peptide)	in vitro kinase assay of immunoprecipitates (32P incorporation into substrate) (enolase)
B1	both kinases phosphoylated the C-terminal scr peptide, enolase and poly Glu/Try to similar degrees	both kinases phosphoylated the C-terminal scr peptide, enolase and poly Glu/Try to similar degrees
B2	both kinases phosphoylated the C-terminal scr peptide, enolase and poly Glu/Try to similar degrees	both kinases phosphoylated the C-terminal scr peptide, enolase and poly Glu/Try to similar degrees
